Results reported in PMC9170038, “Crowdsourced RNA design discovers diverse, reversible, efficient, self-contained molecular switches”.

B1: Eterna 1109 (Exclusion - Theophylline A) (ssRNA)
RNA: UCGGCGGAGUGAUGUUCCUAUGUCCAAGAUACCAGUCUAUGAACGGACCCUUGGCAGCUUCCAUUAGGUUACUAUUUAGACUCAU
B2: Eterna 7727526 (Same State - Tryptophan A) (ssRNA)
RNA: GACGGGCAGUGAUGUUGCCGGUCUCUUGGACGAGGACCGGUACGGCCGCCACUCGAUCUGAUGCGAGAAUUGUAUCUUUUAAUAA
B3: Eterna 7653720 (Same State - Theophylline B) (ssRNA)
RNA: UGUAUGUGAUUUGAUACCAGACCAGCUGGUGGUACCUGAGGAACACCCAGGUAGGUUUGGGUCCCUUGGCAGCAAAUCGCAUACU
B4: Eterna 5860431 (Same State NG 1) (ssRNA)
RNA: UAAUGUUAGCGAGGAUAUCGUUUAUUGAAGUUACGAGAAGGCGCUCUUCUUACAUGAGGAUCACCCAUGUCUGUUUUGCAUGAU
B5: Eterna 7748347 (Exclusion - Theophylline B) (ssRNA)
RNA: UUUUAGGUAUCUGAUACCAGAGAAAAUAUAUGUAGUGAUGUUAUAUACAAAAUAAUUAAGCUCCCUUGGCAGCAGUUUUAAUUUU
B6: Eterna 7619949 (Exclusion - Theophylline A) (ssRNA)
RNA: CGCAACCCUAAGGGAUUGUGGUUAUUAGAUACCAGUAUGAUGCAAUACCCUUGGCAGCUAAUACAUGAGGAUCACCCAUGUUGCG
B7: Eterna 7678688 (Same State - Tryptophan A) (ssRNA)
RNA: AACACUCUGGGAGUGAUGUUCUCAAAUAACCGAGGACCGGUACGGCCGCCACUCGGAAAAGAGUGAGUCCUACGAAAAGUAGGAC
B8: Eterna 6445724 (Inverted Small Loop Same State NG 1) (ssRNA)
RNA: AACCUAAAACAGAAGGCCAGCUACAUGAGGAUCACCCAUGUCGAAUCAUGGAGGAUAUGUUGUAAUUUACUCGCAGAUGAGUGC
B9: Eterna 5982822 (Brourd's mod of Exclusion 4) (ssRNA)
RNA: GGAUCGAAUGUGAGGAUAUGCUGGUCCUUGGAUCAGCAGAAGGCACAUGAGGAUCACCCAUGUGGUAACGGUCC
B10: Eterna 6388885 (Inverted Exclusion NG 1) (ssRNA)
RNA: UUAUUUUUACAGAAGGUUUAAUAAUAUGUAUGAGAAGGAUAUGUAACAUGAGGAUCACCCAUGUUUUAUUUAUAUGAGGAUCAU
B11: Eterna 10350 (Sensor for hsa-mir-208a) (ssRNA)
RNA: GCCCAUAGUAUAUGGAUACAAGCUUUUUGACAUGAGGAUCACCCAUGUACUCGUCUUAUGUGCAGUCCGUAGACUGC
B12: Eterna 5987116 (Exclusion 5) (ssRNA)
RNA: UUAGGAUCAGGAUAUGAUGUUUUAAACAUGAGGAUCACCCAUGUAGAUCCUGAUUCAACAUCAGAAGGGAUAAUUU
B13: Eterna 7691660 (Exclusion - Tryptophan B) (ssRNA)
RNA: AGAUUCGACACGGCCGCCACUUGUGGUGGAUUAUCCUAUGUAAGACAUGAGUGAUGUUCAUGUACAAGGACCGGGUGUUGAGUCU
B14: Eterna 15548 (Exclusion 2) (ssRNA)
RNA: GUGUAGAUAGGAUAUGCUUUGAGCUUAUGAGAGUAUGCUCGACAUGAGGAUCACCCAUGUAGAAGGGUUUACAC
B15: Eterna 13817 (Sensor v3, turn-off variant 2) (ssRNA)
RNA: UGUACUAUGCGUGCUGACAUGCGUAGUGCAGCAGGUGUAACAUGAGGAUCACCCAUGUCCUCAUUUGCUCGUCUUAA
B16: Eterna 1281 (Exclusion - Tryptophan B) (ssRNA)
RNA: GAGAAUCUCACGGCCGCCACUCACCUGUUAAUUGACAUCGACGGCCUCGACCAGUGAUGUUGUGUGAGGACCGGGUGUCUCGUGU
B17: Eterna 7708488 (Same State - Arginine A) (ssRNA)
RNA: UAUACGAAGCAGUGAUGUUGCUUAUGAGAAGGAGCGCACGAAAGUGCAGGUAGGUCGCUCAGCCAUGUGGACGAAAACGUCCACA
B18: Eterna 6124659 (Same State NG 3) (ssRNA)
RNA: GAAUAUUCGUUGAACAUGAGGAUCACCCAUGUAACUUGACAUGAGGAUAUGGAUUCUAAUUGGAUCCAGAAGGUAUGAAUAUUC
B19: Eterna 12785 (Exclusion 4) (ssRNA)
RNA: CUCGUGUGAGGAUAUCUAUUCCACGGACGGGAGUCUUGAAGAGAGAAGGCACAUGAGGAUCACCCAUGUAAUAA
B20: Eterna 6436678 (Exclusion NG 2) (ssRNA)
RNA: AAAUUAAGAAGAGGAUAUUGACAUGAGGAUCACCCAUGUAUUUGGGAGUGUUUACUGAAUUCUUACGAGAAGGCUUACGAACUU
B21: Eterna 6391458 (Small Loop Exclusion NG 1) (ssRNA)
RNA: ACAUGUUUUGUAGGAUAUCACUAGUUGUGUUAUAUAUUUGUUAUAAUGUAUUGAGAAGGACAUUUACAUGAGGAUCACCCAUGU
B22: Eterna 7688897 (Exclusion - Tryptophan B) (ssRNA)
RNA: ACGAUCAUGUCGGCCGCCACUGAGAGUAGUGAUGUUACUUUUAUGUUUUAGUUAUAAUAUUUGAACAGGACCGGGACAUGUUCGU
B23: Eterna 6444393 (Inverted Same State NG 3) (ssRNA)
RNA: UGUUUUGUACAUGAGGAUCACCCAUGUUAAUAUGUGGUAGUCAGAAGGCAUUGUUUGAGAUAUUAUGAGGAUAUGAUUAGUCUG
B24: Eterna 7666983 (Same State - Theophylline A) (ssRNA)
RNA: AAUAACAUGAGGAUCACCCAUGUAAAAGAUACCAGGGUGAUGAUCCUCCCUUGGCAGCUUACAGCUGAUCAAUAAGAUCGGCUGA
B25: Eterna 6433253 (Small Loop Same State NG 3) (ssRNA)
RNA: CGUUUAUAUAUGGGUUUAUAUUAUGAGGAUAUCAAUAUUUAAUACAUGAGGAUCACCCAUGUUACUGAGAAGGCAUAAUUAACG
B26: Eterna 7625640 (Exclusion - Theophylline B) (ssRNA)
RNA: UAUAUUGUGAUGGAUACCAGCAGAGAAAACGUUUAUCCUAACAUGAGGAUCACCCAUGUAUGCCCUUGGCAGCUGUUGUGGUAUA
B27: Eterna 6036671 (Sensor, turn-off variant 1) (ssRNA)
RNA: GUCCUGGAUUAUCACAAGCACAUGAGGAUCACCCAUGUCAUGGGUGGAUCCCUAAAUGGGUAUUCUGCUCGUCUUAU
B28: Eterna 6113948 (Same State NG 3) (ssRNA)
RNA: UGUUGUGAACAGAACAUGAGGAUCACCCAUGUGCACUCGUGUAAGGAUAUACAAUCGUAUGGAAAGUAGAAGGUACUAAUUAUG
B29: Eterna 7641374 (Exclusion - Arginine A) (ssRNA)
RNA: GACAUGAGGAUCACCCAUGUUUUCUAUGAAGGAGCGUCGGAAAUGACAGGUAGGUCGCAUGGUAGGACUUGUAUCUUGUAUGUAG
B30: Eterna 7616965 (Same State - Arginine A) (ssRNA)
RNA: UACAUGAGGAUCACCCAUGUAUGUAUCGAAGGAGCGCGUGUAAACGCAGGUAGGUCGCGAACAUGAGGAUCACACAUGAGGAUCA
B31: Eterna 1103 (Exclusion - Theophylline A) (ssRNA)
RNA: AGUGACGAGUGAUGUUCGUGAACACUGGAUACCAGCAGUCUUAUCUGCCCUUGGCAGCCAACGGGAACCGAAUGUUAAGACCUGU
B32: Eterna 7612252 (Exclusion - Arginine B) (ssRNA)
RNA: ACGUAAUGCAGAAGGAGCGUCUGAUUUUAACAUGAGGAUCACCCAUGUAAUAUUUAUGGUAGACAGGUAGGUCGCUGAAGUACGA
B33: Eterna 6056021 (Exclusion 3) (ssRNA)
RNA: GGGCCCGGAGGAUAUACAUGAGGAUCACCCAUGUAGGGCCCGGGUAUUCCCGGGUUUUGUAGAAGGCCGGGCCC
B34: Eterna 11304 (Exclusion 2) (ssRNA)
RNA: UCGGCGCGAGGAUAUACGGUUGCUUGGUAGGGUCGUGGCGUACAUGAGGAUCACCCAUGUAGAAGGCGCGCCGC
B35: Eterna 7684651 (Exclusion - Tryptophan A) (ssRNA)
RNA: AACUUAAUUUAUAAGCAGUGAUGUUGCUCACGAGGACCGGUACGGCCGCCACUCGAUCGGACUUAGGUCUUCAAUUAUUUCAUUA
B36: Eterna 5859795 (Exclusion NG 3) (ssRNA)
RNA: ACAUGAGGAUCACCCAUGUAAUGAAGGGUACUAUACUAAACGUAGGAUAUCGAUGUAAGAUUGUACGAGAAGGACGAUUGCCUU
B37: Eterna 7728774 (Exclusion - Theophylline A) (ssRNA)
RNA: AUCACAGUGAUGUUGUGAUAUGAUUCAGAUACCAGACUAGUGCUAGUCCCUUGGCAGCUGAACUCAGCAGCACCACUAGCACUCU
B38: Eterna 7689816 (Same State - Arginine A) (ssRNA)
RNA: GCGAACAUUCGCAGUGAUGUUGCGACGGAAGGAGCGCGUGAAAACGCAGGUAGGUCGCCGACAUACUUAAUUUUACAGUGUUCGC
B39: Eterna 7769703 (Exclusion - Tryptophan A) (ssRNA)
RNA: AAACAUCACUGGGAGUGAUGUUCUCAGUGACGAGGACCGGUACGGCCGCCACUCGCGAGAGAACUAGUCUAGACUUGACUGCAUU
B40: Eterna 6122884 (Exclusion NG 3) (ssRNA)
RNA: CGAUAACAUAGUUAUCCGUAACGGACAUGAGGAUCACCCAUGUAGGAUAUGUUACUAAACUAGUAACAGAAGGACAUGAGUCUU
B41: Eterna 7697880 (Same State - Tryptophan B) (ssRNA)
RNA: AACAGCAAUGCGGCCGCCACUUCGAGGUCAGUGAUGUUGACAGAAUUAAAUAAAGAUCCCAAGAGGAGGACCGGGCAGUGCUGUU
B42: Eterna 7754737 (Exclusion - Tryptophan A) (ssRNA)
RNA: CGCUUUGCGUCCGGUAGUGAUGUUACCAAGCGAGGACCGGUACGGCCGCCACUCGAGUGACAGACGUACUGGUAUCACCCGCUUU

Biological target: MS2 coat protein, dlFG mutant (Escherichia phage MS2, UniProt P03612, del68-81insG)
Test: 4 mM Mg2+; no ligand; RNA-MaP array; 100 mM Tris-HCl pH 7.5, 80 mM KCl, 4 mM MgCl2, 0.1 mg/mL BSA, 1 mM DTT, 0.01 mg/mL yeast tRNA, 0.01% Tween-20; protein 1.5 nM to 3 uM; 37 C (Table S3)
Settings: chain copies: 2; label: tethered by stalled RNA polymerase

Row | Binder | Kd [µM]
1 | B1 | > 3
2 | B2 | > 3
3 | B3 | 0.0355
4 | B4 | 0.0687
5 | B5 | > 3
6 | B6 | 0.0138
7 | B7 | > 3
8 | B8 | 0.0355
9 | B9 | 0.233
10 | B10 | 0.0107
11 | B11 | 0.0272
12 | B12 | 0.0151
13 | B13 | > 3
14 | B14 | 0.0883
15 | B15 | 0.386
16 | B16 | > 3
17 | B17 | > 3
18 | B18 | 0.0758
19 | B19 | 0.166
20 | B20 | 0.223
21 | B21 | 0.0087

Row | Binder | Kd [µM]
22 | B22 | > 3
23 | B23 | 0.0606
24 | B24 | 0.192
25 | B25 | 0.0121
26 | B26 | 0.0442
27 | B27 | 0.481
28 | B28 | 0.133
29 | B29 | 0.0145
30 | B30 | 0.0245
31 | B31 | > 3
32 | B32 | 0.0154
33 | B33 | 0.015
34 | B34 | 0.0173
35 | B35 | > 3
36 | B36 | 0.0455
37 | B37 | > 3
38 | B38 | > 3
39 | B39 | > 3
40 | B40 | 0.0372
41 | B41 | > 3
42 | B42 | > 3
